Measured values published in US20160002338A1 (Hoffmann-La Roche, published 2016).

Columns and labels:
[1] = biological target: T1, HER3 ECD binding epitope peptide VYNKLTFQLEP (human); experiment: CelluSpots peptide array, 1 µg/mL antibody
T1 construct: the spotted peptides were longer
T1 peptide: VYNKLTFQLEP

[2] = biological target: T2, HER4 ECD binding epitope peptide VYNPTTFQLE (human); experiment: CelluSpots peptide array, 1 µg/mL antibody
T2 construct: the spotted peptides were longer
T2 peptide: VYNPTTFQLE

[3] = biological target: T3, HER4 ECD-HRG complex (human, UniProt Q15303 26-651); experiment: SPR Biacore 3000, 37 C
T3 construct: HER4 ECD preincubated with a 5-fold molar excess of Heregulin; also called HER-4-ECD-RG
T3 sequence 1: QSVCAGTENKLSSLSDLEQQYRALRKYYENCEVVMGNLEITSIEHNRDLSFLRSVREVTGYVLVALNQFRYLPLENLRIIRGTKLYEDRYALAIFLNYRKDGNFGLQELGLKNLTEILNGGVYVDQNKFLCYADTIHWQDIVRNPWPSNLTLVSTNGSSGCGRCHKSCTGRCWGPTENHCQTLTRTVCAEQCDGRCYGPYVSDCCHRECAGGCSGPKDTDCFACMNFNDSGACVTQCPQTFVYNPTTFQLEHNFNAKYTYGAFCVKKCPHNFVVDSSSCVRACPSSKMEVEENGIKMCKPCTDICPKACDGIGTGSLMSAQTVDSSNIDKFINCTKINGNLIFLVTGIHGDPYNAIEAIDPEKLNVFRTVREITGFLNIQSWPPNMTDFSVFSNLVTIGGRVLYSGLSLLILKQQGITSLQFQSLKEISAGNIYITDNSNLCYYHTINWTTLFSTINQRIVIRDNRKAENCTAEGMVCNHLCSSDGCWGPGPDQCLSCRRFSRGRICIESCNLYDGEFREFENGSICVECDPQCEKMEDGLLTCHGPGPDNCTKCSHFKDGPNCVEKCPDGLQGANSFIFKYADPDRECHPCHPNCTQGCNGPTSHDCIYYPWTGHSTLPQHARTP
T3 sequence 2: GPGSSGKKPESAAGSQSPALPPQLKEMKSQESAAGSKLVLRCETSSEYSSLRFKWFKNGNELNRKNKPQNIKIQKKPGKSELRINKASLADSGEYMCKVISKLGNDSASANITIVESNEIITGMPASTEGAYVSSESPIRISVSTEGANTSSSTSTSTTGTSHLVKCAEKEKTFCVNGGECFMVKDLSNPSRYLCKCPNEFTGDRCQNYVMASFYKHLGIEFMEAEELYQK

[4] = biological target: T4, HER3 ECD-HRG complex (human, UniProt P21860 20-643); experiment: SPR Biacore 3000, 37 C
T4 construct: also called Heregulin/Her-3 ECD
T4 sequence (P21860 20-643 limits assumed, one chain of several): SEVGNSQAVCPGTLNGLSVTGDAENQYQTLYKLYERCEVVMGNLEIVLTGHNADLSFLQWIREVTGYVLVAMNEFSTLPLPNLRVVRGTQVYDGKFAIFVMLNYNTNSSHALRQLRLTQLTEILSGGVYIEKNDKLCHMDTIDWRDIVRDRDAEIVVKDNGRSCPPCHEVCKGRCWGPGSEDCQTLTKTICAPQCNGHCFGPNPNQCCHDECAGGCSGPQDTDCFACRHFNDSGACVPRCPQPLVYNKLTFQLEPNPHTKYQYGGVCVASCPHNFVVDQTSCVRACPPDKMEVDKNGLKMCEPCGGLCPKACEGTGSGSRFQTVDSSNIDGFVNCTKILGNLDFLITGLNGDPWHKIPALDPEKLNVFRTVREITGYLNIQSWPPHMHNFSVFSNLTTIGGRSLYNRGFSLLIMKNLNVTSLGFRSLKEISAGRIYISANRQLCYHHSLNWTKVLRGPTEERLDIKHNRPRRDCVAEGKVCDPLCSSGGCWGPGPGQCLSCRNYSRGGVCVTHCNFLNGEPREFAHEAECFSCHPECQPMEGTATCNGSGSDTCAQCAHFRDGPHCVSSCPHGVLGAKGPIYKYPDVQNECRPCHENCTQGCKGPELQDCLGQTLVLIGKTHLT

[5] = biological target: T5, human recombinant HER3 ECD (human, UniProt P21860 20-643); experiment: SPR Biacore 3000, 37 C
T5 construct: 68 kDa; also called human-Her3-ECD; full length Her3 ECD
T5 sequence (P21860 20-643): as the sequence (P21860 20-643 limits assumed, one chain of several) above

[6] = biological target: T6, human Heregulin fragment (HRG) (human); experiment: SPR Biacore T100, antibody captured, 25 C
T6 construct: also called Heregulin beta (HRG)
T6 chain: T3 sequence 2
Protocol: (§1) A CM5 series sensor was mounted into the system and was normalized in HBS-ET buffer (10 mM HEPES pH 7.4, 150 mM NaCl, 3 mM EDTA, 0.005% w/v Tween 20) according to the manufacturer's instructions. The sample buffer was the system buffer supplemented with 1 mg/ml CMD (Carboxymethyldextran, Sigma #86524). The system operated at 25° C. 6500 RU RAM-Fcγ (relative units of Fcγ-fragment RamIgG, GE Healthcare) were immobilized according to the manufacturer's instructions using EDC/NHS chemistry on all four flow cells. The sensor was deactivated using 1M ethanolamine.
(§2) Analytes in solution were injected at different concentration steps of 0 nM, 1.1 nM, 3.7 nM, 11.1 nM, 33.1 nM and 90 nM for 3.5 min. The dissociation was monitored for 15 min. Where possible, kinetic signatures were evaluated according to a Langmuir fit.

[7] = biological target: T3, HER4 ECD-HRG complex; experiment: SPR Biacore T100, antibody captured, 25 C
Protocol: as §1, §2

[8] = biological target: T7, human recombinant HER4 ECD (human, UniProt Q15303 26-651); experiment: SPR Biacore T100, antibody captured, 25 C
T7 construct: also called full length Her4 ECD
T7 sequence: T3 sequence 1
Protocol: as §1, §2

[9] = biological target: T4, HER3 ECD-HRG complex; experiment: SPR Biacore T100, antibody captured, 25 C
Protocol: as §1, §2

[10] = biological target: T8, human recombinant HER2 ECD (human, UniProt P04626 23-652); experiment: SPR Biacore T100, antibody captured, 25 C
T8 construct: 69.6 kDa
Protocol: as §1, §2

[11] = biological target: T5, human recombinant HER3 ECD; experiment: SPR Biacore T100, antibody captured, 25 C
Protocol: as §1, §2

[12] = biological target: T9, TtSlyDcys-Her3; experiment: SPR Biacore T200, antibody captured, 25 C
T9 chain: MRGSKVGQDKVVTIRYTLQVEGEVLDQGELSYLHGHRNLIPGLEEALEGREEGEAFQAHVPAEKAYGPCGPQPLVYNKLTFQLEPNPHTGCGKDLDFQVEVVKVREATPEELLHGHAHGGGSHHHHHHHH
Protocol: A Biacore T200 instrument (GE Healthcare) was mounted with a CM5 series sensor. The sensor was normalized in HBS-ET buffer (10 mM HEPES pH 7.4, 150 mM NaCl, 3 mM EDTA, 0.05% w/v Tween 20) according to the manufacturer's instructions. The sample buffer was the system buffer supplemented with 1 mg/ml CMD (Carboxymethyldextran, Sigma #86524). The system operated at 25° C. 6500 RU RAM-Fey (relative units of Fey-fragment RamIgG, GE Healthcare) were immobilized according to the manufacturer's instructions using amine coupling EDC/NHS chemistry on all four flow cells. The sensor was deactivated using 1M ethanolamine. […] Concentration dependent kinetics were measured. […] All analytes were injected for 5 min association time and 10 min dissociation time at 100 μl/min flow rate. The sensor capture system was regenerated by a 3 min injection at 10 μl/min of 10 mM glycine pH 1.7. Where possible kinetic data was evaluated using the Biacore T200 evaluation software.

B1: anti-HER3/HER4 antibody M-05-74 (antibody, V domains shown)
VH: QVQLQQSGAELAKPGASVKMSCKTSGYTLTDYWIHWVKQRPGQGLEWIGYINPYTGYTESNQKFKDKATLTADKSSNTAYIQLSSLTSEDSAVYYCARPYYYGDYWGQGTTLTVSS
VL: QIVLTQSPAIMSASPGERVTITCSASSSVSYMHWFQQKPGTSPKLLIYSTSNLASGVPARFSGSGSGTSYSLTISRMEAEDAATYYCQQRSSYPFTFGSGTKLEIK
notes: murine monoclonal antibody from hybridoma (supernatant or purified); also called M-074; M-5-74
**Q.** Does B1 bind [1]?
**A.** binds

**Q.** Does B1 bind [2]?
**A.** binds

**Q.** And the “Molar Ratio MR” value [3]?
**A.** 0.9

**Q.** What about the “Molar Ratio MR” value [4] of the same binder?
**A.** 0.7

**Q.** And the “Molar Ratio MR” value [5]?
**A.** 0.6

**Q.** Does B1 bind [6]?
**A.** no binding (tested: 90 nM)

**Q.** What about the “Binding Late BL” value [7] of the same binder?
**A.** 349 RU

**Q.** And the “Molar Ratio MR” value [7]?
**A.** 0.6

**Q.** And the “ratio MR (+Heregulin)/MR (-Heregulin)” value [7]?
**A.** 6

**Q.** And the “ratio ka (Her4-ECD-HRG)/ka (Her4-ECD)” value [7]?
**A.** 23.9

**Q.** What about the “Binding Late BL” value [8] of the same binder?
**A.** 27 RU

**Q.** And the “Molar Ratio MR” value [8]?
**A.** 0.1

**Q.** What about the “Binding Late BL” value [9] of the same binder?
**A.** 160 RU

**Q.** And the “Molar Ratio MR” value [9]?
**A.** 0.6

**Q.** What about the “ratio MR (+Heregulin)/MR (-Heregulin)” value [9] of the same binder?
**A.** 3

**Q.** And the “ratio ka (Her3-ECD-HRG)/ka (Her3-ECD)” value [9]?
**A.** 4.85

**Q.** Does B1 bind [10]?
**A.** no binding (tested: 90 nM)

**Q.** And the “Binding Late BL” value [11]?
**A.** 70 RU

**Q.** And the “Molar Ratio MR” value [11]?
**A.** 0.2

**Q.** What about the “Molar Ratio MR” value [12] of the same binder?
**A.** 1.9
